Measurements from patent publication US20260001953A1 (TWIST BIOSCIENCE, published 2026).

T1: SIGLEC-5 (limits assumed)
T1 construct: also called OB-BP-2
T1 receptor: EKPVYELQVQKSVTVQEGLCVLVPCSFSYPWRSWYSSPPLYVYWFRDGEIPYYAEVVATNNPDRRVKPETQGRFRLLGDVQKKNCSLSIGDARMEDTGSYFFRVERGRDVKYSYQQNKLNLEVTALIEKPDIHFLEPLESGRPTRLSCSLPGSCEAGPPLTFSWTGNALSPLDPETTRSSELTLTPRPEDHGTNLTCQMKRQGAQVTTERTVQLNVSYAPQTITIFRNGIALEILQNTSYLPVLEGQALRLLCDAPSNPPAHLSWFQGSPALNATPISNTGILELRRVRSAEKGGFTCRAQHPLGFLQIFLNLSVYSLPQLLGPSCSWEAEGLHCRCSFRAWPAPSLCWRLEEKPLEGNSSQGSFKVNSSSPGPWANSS


How the values were obtained:
[1] = molecular target: T2, Sialic acid-binding immunoglobulin-like lectin 8 (SIGLEC-8), antigen of the Carterra SPR studies (UniProt Q9NYZ4 17-363, limits assumed); assay: Carterra SPR
T2 sequence (Q9NYZ4 17-363 limits assumed): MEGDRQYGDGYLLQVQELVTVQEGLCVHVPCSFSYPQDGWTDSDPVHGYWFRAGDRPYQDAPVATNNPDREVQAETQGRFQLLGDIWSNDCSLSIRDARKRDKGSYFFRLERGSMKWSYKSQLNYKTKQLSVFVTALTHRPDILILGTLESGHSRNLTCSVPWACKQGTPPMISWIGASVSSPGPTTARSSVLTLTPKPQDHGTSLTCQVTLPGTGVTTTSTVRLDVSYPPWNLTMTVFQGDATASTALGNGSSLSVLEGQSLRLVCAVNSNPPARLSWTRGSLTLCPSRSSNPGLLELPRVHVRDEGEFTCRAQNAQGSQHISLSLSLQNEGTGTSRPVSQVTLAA
How it was run: (§1)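 Binding of antibodies to SIGLEC-8 was followed by surface plasmon resonance on a Carterra instrument to obtain rate constants and dissociation constants. Before these kinetic runs, clones from synthetic antibody libraries were selected by four rounds of bead-based panning and clonal ELISA, then expressed and purified.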

SIGLEC-2 = molecular target: T3, SIGLEC-2; assay: SPR cross-reactivity table
T3 construct: also called CD22
T3 sequence (chain, as listed by the source limits assumed): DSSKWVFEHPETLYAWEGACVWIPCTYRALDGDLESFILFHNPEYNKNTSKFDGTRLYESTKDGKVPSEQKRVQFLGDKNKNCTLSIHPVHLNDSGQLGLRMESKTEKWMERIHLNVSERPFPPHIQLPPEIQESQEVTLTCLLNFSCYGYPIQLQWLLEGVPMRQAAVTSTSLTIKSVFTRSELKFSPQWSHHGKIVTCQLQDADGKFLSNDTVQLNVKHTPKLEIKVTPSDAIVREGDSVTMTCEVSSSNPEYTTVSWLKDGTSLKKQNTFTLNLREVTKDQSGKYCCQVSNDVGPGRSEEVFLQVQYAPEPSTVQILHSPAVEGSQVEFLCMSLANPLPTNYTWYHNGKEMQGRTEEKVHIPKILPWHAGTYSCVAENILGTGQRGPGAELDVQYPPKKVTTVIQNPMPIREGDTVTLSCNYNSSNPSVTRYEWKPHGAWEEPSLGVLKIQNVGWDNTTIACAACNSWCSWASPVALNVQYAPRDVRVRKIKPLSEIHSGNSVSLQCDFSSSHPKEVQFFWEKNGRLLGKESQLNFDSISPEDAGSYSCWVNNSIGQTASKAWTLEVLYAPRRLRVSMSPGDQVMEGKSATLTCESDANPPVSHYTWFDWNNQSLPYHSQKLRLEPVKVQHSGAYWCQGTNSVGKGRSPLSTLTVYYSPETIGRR
How it was run: (§2)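 Purified antibodies against SIGLEC-8, first selected from synthetic libraries by four rounds of bead-based panning, were tested for cross-reactivity with related SIGLEC proteins by surface plasmon resonance on a Carterra instrument. Each protein tested has a dissociation constant or a binding result listed.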

SIGLEC-3 = molecular target: T4, SIGLEC-3; assay: SPR cross-reactivity table
T4 construct: also called CD33
T4 sequence (receptor, as listed by the source limits assumed): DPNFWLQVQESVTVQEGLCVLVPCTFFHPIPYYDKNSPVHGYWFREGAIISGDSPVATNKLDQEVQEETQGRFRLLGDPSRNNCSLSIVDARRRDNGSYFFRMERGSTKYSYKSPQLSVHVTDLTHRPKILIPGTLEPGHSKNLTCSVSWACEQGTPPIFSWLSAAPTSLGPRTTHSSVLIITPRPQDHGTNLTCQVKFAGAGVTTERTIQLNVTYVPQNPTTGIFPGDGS
How it was run: as §2

SIGLEC-5 = molecular target: T1, SIGLEC-5; assay: SPR cross-reactivity table
How it was run: as §2

SIGLEC-6 = molecular target: T5, SIGLEC-6; assay: SPR cross-reactivity table
T5 construct: also called OB-BP-1
T5 sequence (receptor, as listed by the source limits assumed): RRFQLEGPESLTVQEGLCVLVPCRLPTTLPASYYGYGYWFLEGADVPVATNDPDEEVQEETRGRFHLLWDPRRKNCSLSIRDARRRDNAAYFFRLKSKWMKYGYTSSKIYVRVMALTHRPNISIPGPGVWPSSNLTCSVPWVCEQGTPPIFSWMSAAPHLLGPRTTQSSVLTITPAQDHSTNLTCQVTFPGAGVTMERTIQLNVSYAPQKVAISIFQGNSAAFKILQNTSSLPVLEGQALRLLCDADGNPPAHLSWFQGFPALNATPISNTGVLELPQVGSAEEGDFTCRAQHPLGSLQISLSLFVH
How it was run: as §2

SIGLEC-7 = molecular target: T6, SIGLEC-7; assay: SPR cross-reactivity table
T6 construct: also called p75/AIRM1
T6 sequence (receptor, as listed by the source limits assumed): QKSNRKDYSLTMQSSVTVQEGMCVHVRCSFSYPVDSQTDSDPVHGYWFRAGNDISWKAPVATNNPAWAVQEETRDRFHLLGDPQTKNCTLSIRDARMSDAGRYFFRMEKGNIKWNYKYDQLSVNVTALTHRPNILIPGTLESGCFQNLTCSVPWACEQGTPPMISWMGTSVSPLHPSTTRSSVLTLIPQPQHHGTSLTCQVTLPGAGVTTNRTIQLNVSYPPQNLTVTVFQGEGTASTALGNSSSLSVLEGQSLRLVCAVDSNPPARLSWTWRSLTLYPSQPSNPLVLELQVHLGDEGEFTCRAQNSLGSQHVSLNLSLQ
How it was run: as §2

[2] = molecular target: T7, SIGLEC-8 transiently expressed on cells (UniProt Q9NYZ4 17-499, limits assumed); assay: cell binding titration, transient SIGLEC-8 line
T7 construct: whole, on cells; Two cassettes are described (P2A mVenus and direct mVenus fusion); also called the transient line; pTT5-SIGLEC-8 P2A mVenus
T7 sequence (Q9NYZ4 17-499 limits assumed): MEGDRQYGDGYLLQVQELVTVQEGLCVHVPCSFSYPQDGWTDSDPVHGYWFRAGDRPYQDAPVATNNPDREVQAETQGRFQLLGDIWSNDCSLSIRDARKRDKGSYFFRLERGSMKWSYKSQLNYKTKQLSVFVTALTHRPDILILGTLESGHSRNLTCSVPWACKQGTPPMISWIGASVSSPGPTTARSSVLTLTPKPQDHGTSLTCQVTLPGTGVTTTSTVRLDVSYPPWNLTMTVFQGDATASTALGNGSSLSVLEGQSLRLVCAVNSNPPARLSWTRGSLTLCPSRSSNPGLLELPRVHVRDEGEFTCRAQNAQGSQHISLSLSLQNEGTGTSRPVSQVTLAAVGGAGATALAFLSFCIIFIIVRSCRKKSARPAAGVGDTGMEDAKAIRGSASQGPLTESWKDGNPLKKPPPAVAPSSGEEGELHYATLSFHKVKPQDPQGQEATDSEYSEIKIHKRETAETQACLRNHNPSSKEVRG

[3] = molecular target: T2, Sialic acid-binding immunoglobulin-like …; assay: Carterra SPR kinetics, summary table
How it was run: as §1

Row | Binder | Kd [1] [nM] | Kd (SIGLEC-2) [nM] | binding result (SIGLEC-3) | binding result (SIGLEC-5) | binding result (SIGLEC-6) | binding result (SIGLEC-7) | EC50 [2] [nM] | binding result (SIGLEC-2) | Kd (SIGLEC-5) [nM] | Kd (SIGLEC-6) [nM] | koff [3] [s⁻¹] | kon [3] [M⁻¹ s⁻¹] | Kd (SIGLEC-7) [nM] | Kd (SIGLEC-3) [nM]
1 | SIGLEC-8-10 (antibody, human IgG1, kappa, V domains shown, tested as expressed and purified mAb) VH: EVQLLESGGGLVQPGGSLRLSCAASGFTFNNYAMAWVRQAPGKGLEWVSAISGSGSSPYYADSVKGRFTISRDNSKNTLYLQMNSLRAEDTAVYYCARDQIVAMDVWGQGTLVTVSS VL: not shown | 3.17 | 755 | no binding | no binding | no binding | no binding | 1.09 | – | – | – | – | – | – | –
2 | SIGLEC-8-54 (antibody, human IgG1, kappa, V domains shown, tested as expressed and purified mAb) VH: EVQLLESGGGLVQPGGSLRLSCAASGFTFNNYAMAWVRQAPGKGLEWVSAISGSGSSPYYADSVKGRFTISRDNSKNTLYLQMNSLRAEDTAVYYCARDQIVAMDVWGQGTLVTVSS VL: DIQMTQSPSSLSASVGDRVTITCRGSQSISSYLNWYQQKPGKAPKLLIYDASSLQSGVPSRFSGSGSGTDFTLTISSLQPEDFATYYCQQSYRTPITFGGGTKVEIKR | 1.06 | – | no binding | – | – | no binding | 0.527 | no binding | 19.9 | 12 | – | – | – | –
3 | SIGLEC-8-8 (antibody, human IgG1, kappa, V domains shown, tested as expressed and purified mAb) VH: EVQLLESGGGLVQPGGSLRLSCAASGFTFNYYALSWVRQAPGKGLEWVSGISGSGGTTFYADSVKGRFTISRDNSKNTLYLQMNSLRAEDTAVYYCARRGGWYSFDIWGQGTLVTVSS VL: DIQMTQSPSTLSAYVGDRVTITCRASQIISTYLNWYQQKPGKAPKLLIYSASSLQSGVPSRFSGSGSGTDFTLTISSLQPEDFATYYCQQSFSAPDTFGGGTKVEIKR | 1.65 | 4300 | no binding | – | – | no binding | 1.3 | – | 39.3 | – | – | – | – | –
4 | SIGLEC-8-57 (antibody, human IgG1, kappa, V domains shown, tested as expressed and purified mAb) VH: EVQLLESGGGLVQPGGSLRLSCAASGFAFSRYAMSWVRQAPGKGLEWVSGISGSGGRTHYADSVKGRFTISRDNSKNTLYLQMNSLRAEDTAVYYCARQSRGGSLGMDVWGQGTLVTVSS VL: DIQMTQSPSSLSASVGDRVTITCRASQSISGYLNWYQQKPGKAPKLLIYGSSTLQSGVPSRFSGSGSGTDFTLTISSLQPEDFATYYCQQSYSPPWTFGGGTKVEIKR | 990 | – | no binding | – | – | no binding | 1.73 | no binding | 28.3 | 9.6 | – | – | – | –
5 | SIGLEC-8-11 (antibody, human IgG1, kappa, V domains shown, tested as expressed and purified mAb) VH: EVQLLESGGGLVQPGGSLRLSCAASGLTFSNYDMSWVRQAPGKGLEWVSAISTSGGGSGGSTYYADSVKGRFTISRDNSKNTLYLQMNSLRAEDTAVYYCAREANNYYYGMDVWGQGTLVTVSS VL: DIQMTQSPSSLSASVGDRVTITCRASQTISSYLHWYQQKPGKAPKLLIYAASSLHTGVPSRFSGSGSGTDFTLTISSLQPEDFATYYCQQSSSTPLTFGGGTKVEIKR | 0.217 | – | no binding | – | no binding | no binding | 2.19 | no binding | 29.7 | – | 7.23e-05 | 334000 | – | –
6 | SIGLEC-8-17 (antibody, human IgG1, kappa, V domains shown, tested as expressed and purified mAb) VH: EVQLLESGGGLVQPGGSLRLSCAASGFPFSNYAMGWVRQAPGKGLEWVSGISASGSSTYYADSVKGRFTISRDNSKNTLYLQMNSLRAEDTAVYYCAREDSGKYLSLDYWGQGTLVTVSS VL: DIQMTQSPSSLSASVGDRVTITCRTSQSISSHLNWYQQKPGKAPKLLIYAASSLQPGVPSRFSGSGSGTDFTLTISSLQPEDFATYYCQQSYNTPPTFGGGTKVEIKR | 8.89 | 836 | no binding | no binding | no binding | no binding | 1.25 | – | – | – | – | – | – | –
7 | SIGLEC-8-32 (antibody, human IgG1, kappa, V domains shown, tested as expressed and purified mAb) VH: EVQLLESGGGLVQPGGSLRLSCAASGFTLSSYVMSWVRQAPGKGLEWVSAISGSGATTYYADSVKGRFTISRDNSKNTLYLQMNSLRAEDTAVYYCAREVAGIFDYWGQGTLVTVSS VL: DIQMTQSPSSLSASVGDRVTITCRSSQSISTYLNWYQQKPGKAPKLLIYAASYLQSGVPSRFSGSGSGTDFTLTISSLQPEDFATYYCQQSYDTPLTFGGGTKVEIKR | 19.2 | 128 | – | – | – | – | 3.81 | – | 4.2 | 5.3 | – | – | 17.4 | –
8 | SIGLEC-8-7 (antibody, human IgG1, kappa, V domains shown, tested as expressed and purified mAb) VH: EVQLLESGGGLVQPGGSLRLSCAASGFTFSNHAMAWVRQAPGKGLEWVSGISGSAASTYYADSVKGRFTISRDNSKNTLYLQMNSLRAEDTAVYYCARDLLALPYAFDIWGQGTLVTVSS VL: DIQMTQSPSSLSASVGDRVTITCRASQSTSSYLSWYQQKPGKAPKLLIYAVSTLQSGVPSRFSGSGSGTDFTLTISSLQPEDFATYYCQQSYSVPLTFGGGTKVEIKR | 1.12 | – | no binding | – | no binding | no binding | 0.813 | no binding | 123 | – | – | – | – | –
9 | SIGLEC-8-24 (antibody, human IgG1, kappa, V domains shown, tested as expressed and purified mAb) VH: EVQLLESGGGLVQPGGSLRLSCAASGFTFSSTAMSWVRQAPGKGLEWVSAISGTGGSTYYADSVKGRFTISRDNSKNTLYLQMNSLRAEDTAVYYCARESDYDYFGMDVWGQGTLVTVSS VL: DIQMTQSPSSLSASVGDRVTITCRASQSVSSYVNWYQQKPGKAPKLLIYGASSLQDGVPSRFSGSGSGTDFTLTISSLQPEDFATYYCQQSYSVPVTFGGGTKVEIKR | 0.822 | – | no binding | – | no binding | no binding | 1.05 | – | 33.7 | – | 0.000194 | 236000 | – | –
10 | SIGLEC-8-56 (antibody, human IgG1, kappa, V domains shown, tested as expressed and purified mAb) VH: EVQLLESGGGLVQPGGSLRLSCAASGLTFSSSAMSWVRQAPGKGLEWVSAISGYGGSTYYADSVKGRFTISRDNSKNTLYLQMNSLRAEDTAVYYCAREAGYYYYGMDVWGQGTLVTVSS VL: DIQMTQSPSSLSASVGDRVTITCRASQKITSYLNWYQQKPGKAPKLLIYAASSLHDGVPSRFSGSGSGTDFTLTISSLQPEDFATYYCQQSYGTPLTFGGGTKVEIKR | 0.271 | 43.2 | – | – | – | – | 1.02 | – | 3.4 | – | 0.000156 | 576000 | 18 | 60.5
11 | SIGLEC-8-34 (antibody, human IgG1, kappa, V domains shown, tested as expressed and purified mAb) VH: EVQLLESGGGLVQPGGSLRLSCAASGFTFSRHAMGWVRQAPGKGLEWVSSISGSGYSTYYADSVKGRFTISRDNSKNTLYLQMNSLRAEDTAVYYCARENGQYYYGMDVWGQGTLVTVSS VL: DIQMTQSPSSLSASVGDRVTITCRASQTITTYLNWYQQKPGKAPKLLIYAASHLQTGVPSRFSGSGSGTDFTLTISSLQPEDFATYYCQQSYSTPLSFGGGTKVEIKR | 9.23 | 208 | – | – | – | no binding | 1.95 | – | 5.5 | 6.9 | – | – | – | 62.2
12 | SIGLEC-8-19 (antibody, human IgG1, kappa, V domains shown, tested as expressed and purified mAb) VH: EVQLLESGGGLVQPGGSLRLSCAASGFTFRTYDMSWVRQAPGKGLEWVSAISGGGGSTYYADSVKGRFTISRDNSKNTLYLQMNSLRAEDTAVYYCARDSSYRWFSMDVWGQGTLVTVSS VL: DIQMTQSPSSLSASVGDRVTITCRAGQSISTYLNWYQQKPGKAPKLLIYGASKLQSGVPSRFSGSGSGTDFTLTISSLQPEDFATYYCQQTYRTPLTFGGGTKVEIKR | 4.86 | – | no binding | – | – | no binding | – | no binding | 14.5 | 1070 | – | – | – | –
13 | SIGLEC-8-48 (antibody, human IgG1, kappa, V domains shown, tested as expressed and purified mAb) VH: EVQLLESGGGLVQPGGSLRLSCAASGFNFRSYAMSWVRQAPGKGLEWVSGISGSGGSAYYADSVKGRFTISRDNSKNTLYLQMNSLRAEDTAVYYCAREGYNWAVDYWGQGTLVTVSS VL: DIQMTQSPSSLSASVGDRVTITCRASQSISGFLNWYQQKPGKAPKLLIYGASILQSGVPSRFSGSGSGTDFTLTISSLQPEDFATYYCQQTYSTPRSFGGGTKVEIKR | 336 | 629 | no binding | no binding | no binding | no binding | 12.3 | – | – | – | – | – | – | –
